Results published in patent US20190142971A1, “FORMULATION AND DELIVERY OF MODIFIED NUCLEOSIDE, NUCLEOTIDE, AND NUCLEIC ACID COMPOSITIONS” (ModernaTX, Inc., priority 2013, published 2019).

System: Balb-C mice
Assay: Example 113: FGF21 mRNA IM with or without electroporation, serum FGF21 (Tables 181, 182)
Type: in vivo
Details: 5 mg/kg IM
Method: The mice undergoing electroporation were subjected to electroporation (EP) using the […]′ instrument (Harvard Apparatus/BTX®, Holliston, Mass.), as outlined in Table 181, immediately after the administration of FGF21 mRNA or the control.
Serum was collected from the mice at 2 hours and 8 hours.

B1: FGF21 modified mRNA: Fibroblast Growth Factor 21 mRNA, SEQ ID NO: 24, 5-methylcytosine and 1-methylpseudouridine, in PBS (nucleic acid)
chain: GGGAAAUAAGAGAGAAAAGAAGAGUAAGAAGAAAUAUAAGAGCCACCAUGGACUCGGACGAGACCGGGUUCGAGCACUCAGGACUGUGGGUUUCUGUGCUGGCUGGUCUUCUGCUGGGAGCCUGCCAGGCACACCCCAUCCCUGACUCCAGUCCUCUCCUGCAAUUCGGGGGCCAAGUCCGGCAGCGGUACCUCUACACAGAUGAUGCCCAGCAGACAGAAGCCCACCUGGAGAUCAGGGAGGAUGGGACGGUGGGGGGCGCUGCUGACCAGAGCCCCGAAAGUCUCCUGCAGCUGAAAGCCUUGAAGCCGGGAGUUAUUCAAAUCUUGGGAGUCAAGACAUCCAGGUUCCUGUGCCAGCGGCCAGAUGGGGCCCUGUAUGGAUCGCUCCACUUUGACCCUGAGGCCUGCAGCUUCCGGGAGCUGCUUCUUGAGGACGGAUACAAUGUUUACCAGUCCGAAGCCCACGGCCUCCCGCUGCACCUGCCAGGGAACAAGUCCCCACACCGGGACCCUGCACCCCGAGGACCAGCUCGCUUCCUGCCACUACCAGGCCUGCCCCCCGCACCCCCGGAGCCACCCGGAAUCCUGGCCCCCCAGCCCCCCGAUGUGGGCUCCUCGGACCCUCUGAGCAUGGUGGGACCUUCCCAGGGCCGAAGCCCCAGCUACGCUUCCUGAUAAUAGGCUGGAGCCUCGGUGGCCAUGCUUCUUGCCCCUUGGGCCUCCCCCCAGCCCCUCCUCCCCUUCCUGCACCCGUACCCCCGUGGUCUUUGAAUAAAGUCUGAGUGGGCGGC
modifications: 5-methylcytosine, 1-methylpseudouridine
  protein production with vs without electroporation: increase protein production
